Each block holds one molecule with its values, some of them ahead of it.
What was measured:
TGFβ-1 [1] = target: T1, TGFβ-1 (Homo sapiens, UniProt P01137)
CHO cells = test: [3H]thymidine incorporation (growth) in CHO cells; format: cell-based; conditions: TGFβ-1 at 5 ng/ml
Description: (§1) The ability of decorin to modulate the activity of TGFβ-1 was examined in [^3 H]thymidine incorporation assays. In one assay, an unamplified CHO cell line transfected only with pSV2dhfr (control cell line A in reference 1, called CHO cells here) was used. The cells were maintained in nucleoside-free alpha-modified minimal essential medium (e-MEM, GIBCO, Long Island, N.Y.) supplemented with 9% dialyzed fetal calf serum (dFCS) and [^3 H]thymidine incorporation was assayed as described (Cheifetz et al., Cell 48:409-415 (1987)). TGFβ-1 was added to the CHO cell cultures at 5 ng/ml. At this concentration, it induced a 50% increase of [^3 H]thymidine incorporation in these cells. Decorin or BSA was added to the medium at different concentrations. The data represent percent neutralization of the TGFβ-1-induced growth stimulation, i.e., [^3 H]thymidine incorporation, in the absence of either TGFβ-1 or decorin=0%, incorporation in the presence of TGFβ-1 but not decorin=100%. […] Decorin (.circle-solid.) BSA (.largecircle.).
This was shown by gel filtration of the DEAE-isolated decorin under dissociating conditions. […] The fractions were analyzed by SDS-PAGE, decorin ELISA and cell growth assays, all described above. […] Shown are the ability of the gel filtration fractions to affect [^3 H]-thymidine incorporation by the CHO cells and the concentration of decorin as determined by enzyme immunoassay. […]

Mv1Lu cells = test: [3H]thymidine incorporation (growth) in Mv1Lu mink lung epithelial cells; format: cell-based; conditions: TGFβ-1 at 0.5 ng/ml
Description: Assay was performed as in FIG. 4A, except that TGFβ-1 was added at 0.5 ng/ml. This concentration of TGFβ induces 50% reduction of [^3 H]-thymidine incorporation in the Mv1Lu cells. The data represent neutralization of TGFβ-induced growth inhibition; i.e., [^3 H]-thymidine incorporation in the presence of neither TGFβ or decorin=100%; incorporation in the presence of TGFβ but not decorin=0%. […] This was shown by gel filtration of the DEAE-isolated decorin under dissociating conditions. […] The fractions were analyzed by SDS-PAGE, decorin ELISA and cell growth assays, all described above. Three protein peaks were obtained. […] Shown are the ability of the gel filtration fractions to affect [^3 H]-thymidine incorporation by the CHO cells and the concentration of decorin as determined by enzyme immunoassay. Shown also (arrows) are the elution positions of molecular size markers: BSA, bovine serum albumin (Mr=66,000); CA, carbonic anhydrase (Mr=29,000); Cy, cytochrome c (Mr=12,400); AP, aprotinin (Mr=6,500); TGF, [^125 I]TGFβ-1 (Mr=25,000).

TGFβ-1 [2] = target: TGFβ-1 (Homo sapiens (Human), UniProt P01137, 125I label in most assays (chloramine T method in Example II; Bolton-Hunter labeled in Example VI); unlabeled in the experiment of Table I and in the growth assays); test: soluble peptide competitor of 125I-TGF-β binding to immobilized decorin
Description: The wells were placed in a 37° C. incubator overnight and thereafter washed 3 times with 200 µl PBS (0.15M NaCl) per well to remove unbound decorin.
Following the incubation, 50 µl of the free TGF-β supernatants were transferred to labeled tubes. The plate was washed 3 times with 0.05% Tween-20 in PBS (200 µl/well). The wells were then transferred into tubes for counting in a gamma counter.

TGF-β [3] = target: T2, TGF-β (Homo sapiens, UniProt P01137); test: Binding of 125I-TGF-β to HepG2 cells; conditions: 250 pM [125I]TGF-β, 2 hours room temperature
Description: (§2) About 2.5×10^4 HepG2 cells or L-M(tk-) cells were incubated with 250 pM[^125 I]TGF-β in the presence of recombinant human decorin (DC-12), PT-71 (MBP), decorin fragments (PT-72, -73, -84, -85, -86 and -87) or anti-TGF-β antibodies for 2 hours at room temperature. Cells were washed with washing buffer (128 mM NaCl, 5 mM KCl, 5 mM […], 1.2 mM CaCl2, 50 mM HEPES, pH 7.5) four times before determination of bound CPM.

TGF-β [4] = target: T2, TGF-β; test: Binding of 125I-TGF-β to L-M(tk-) cells; conditions: 250 pM [125I]TGF-β, 2 hours room temperature; proteins
Description: as §2
The activity of the peptides was evaluated using the L-M(tk-) TGFβ1 binding inhibition assay described in Example VII, except various concentrations of peptide were incubated with the cells and TGFβ1 instead of decorin and recombinant decorin fragments. The negative control was a synthetic peptide corresponding to the first 15 amino acids of decorin, which has the sequence […](SEQ ID NO. 21).

TGFβ-1 [5] = target: T1, TGFβ-1; test: [3H]thymidine incorporation assay: neutralization of TGFβ-1-induced growth inhibition in Mv1Lu cells; format: cell-based, mink; set-up: contains a major band at 25 kd; This band represents the native TGFβ-1 dimer; conditions: TGFβ-1 0.5 ng/ml
Description: Assay was performed as in FIG. 4A, except that TGFβ-1 was added at 0.5 ng/ml. This concentration of TGFβ induces 50% reduction of [^3 H]-thymidine incorporation in the Mv1Lu cells. The data represent neutralization of TGFβ-induced growth inhibition; i.e., [^3 H]-thymidine incorporation in the presence of neither TGFβ or decorin=100%; incorporation in the presence of TGFβ but not decorin=0%.
Target sequence in this assay (P01137 279-390 limits assumed, species assumed): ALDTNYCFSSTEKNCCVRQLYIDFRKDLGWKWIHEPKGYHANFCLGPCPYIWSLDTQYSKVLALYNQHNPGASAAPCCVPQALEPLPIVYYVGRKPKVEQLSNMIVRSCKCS

TGFβ-1 [6] = target: T1, TGFβ-1; test: Microtiter binding assay: [125I]-TGFβ-1 binding to decorin-coated wells and competition; set-up: contains a major band at 25 kd; This band represents the native TGFβ-1 dimer; purchased Calbiochem, La Jolla, Calif; conditions: intact proteoglycans, 37° C. 4 hours (FIG. 3A)
Description: The binding of TGFβ-1 to decorin was also examined in a microtiter binding assay. To perform the assay, the wells of a 96-well microtiter plate were coated overnight with 2μg/ml of recombinant decorin in 0.1M sodium carbonate buffer, pH 9.5. The wells were washed with PBS containing 0.05% Tween (PBS/Tween) and samples containing 5×10^4 cpm of [^125 I]-TGFβ-1 and various concentrations of competitors in PBS/Tween were added to each well. The plates were then incubated at 37° C. for 4 hours (at 4° C. overnight in experiments with chondroitinase ABC-digested proteoglycans), washed with PBS/Tween and the bound radioactivity was solubilized with 1% SDS in 0.2M NaOH. Total binding without competitors was about 4% under the conditions used. Nonspecific binding, determined by adding 100-fold molar excess of unlabeled TGFβ-1 over the labeled TGFβ-1 to the incubation mixture, was about 13% of total binding. This assay was also used to study the ability of other decorin preparations and related proteins to compete with the interaction.
Decorin isolated from bovine skin and biglycan isolated from bovine articular cartilage (PGI and PGII, obtained from Dr. Lawrence Rosenberg, Monteflore Medical Center, N.Y.; and described in Rosenberg et al., J. Biol. Chem. 250:6304-6313, (1985), incorporated by reference herein), chicken cartilage proteoglycan (provided by Dr. Paul Goetinck, La Jolla Cancer Research Foundation, La Jolla, Calif., and described in Goetinck, P. F., in THE GLYCOCONJUGATES, Vol. III, Horwitz, M. I., Editor, pp. 197-217, Academic Press, NY). For the preparation of core proteins, proteoglycans were digested with chondroitinase ABC (Seikagaku, Tokyo, Japan) by incubating 500 μg of proteoglycan with 0.8 units of chondroitinase ABC in 250 μl of 0.1M Tris/Cl, pH 8.0, 30 mM sodium acetate, 2 mM PMSF, 10 mM N-ethylmalelmide, 10 mM EDTA, and 0.36 mM pepstatin for 1 hour at 37° C. Recombinant decorin and decorin isolated from bovine skin (PGII) inhibited the binding of [^125 I]-TGFβ-1, as expected (FIG. 3A). […] This notion was further supported by competition experiments with the mutated decorin core protein (not shown) and chondroitinase ABC-digested decorin and biglycan (FIG.3B). Each of these proteins was inhibitory, whereas cartilage proteoglycan core protein was not.
Target sequence in this assay (P01137 279-390 limits assumed, species assumed): as above

TGFβ-1 [7] = target: T1, TGFβ-1; test: [3H]thymidine incorporation assay: neutralization of TGFβ-1-induced growth stimulation in CHO cells; format: cell-based; set-up: contains a major band at 25 kd; This band represents the native TGFβ-1 dimer; purchased Calbiochem, La Jolla, Calif
Description: as §1
Target sequence in this assay (P01137 279-390 limits assumed, species assumed): as above
IgG from a normal rabbit serum had no effect in the assay (.largecircle.).

T2 sequence (P01137 279-390 limits assumed): as the sequence (P01137 279-390 limits assumed, species assumed) above

Molecule: TGFβ-1: commercially obtained transforming growth factor β-1
- increase of [3H]thymidine incorporation (CHO cells): 50%
- reduction of [3H]-thymidine incorporation (Mv1Lu cells): 50%

B2: Recombinant human decorin: recombinant human decorin (DC-12) (protein)
chain: DEASGIGPEVPDDRDFEPSLGPVCPFRCQCHLRVVQCSDLGLDKVPKDLPPDTTLLDLQNNKITEIKDGDFKNLKNLHALILVNNKISKVSPGAFTPLVKLERLYLSKNQLKELPEKMPKTLQELRAHENEITKVRKVTFNGLNQMIVIELGTNPLKSSGIENGAFQGMKKLSYIRIADTNITSIPQGLPPSLTELHLDGNKISRVDAASLKGLNNLAKLGLSFNSISAVDNGSLANTPHLRELHLDNNKLTRVPGGLAEHKYIQVVYLHNNNISVVGSSDFCPPGHNTKKASYSGVSLFSNPVQYWEIQPSTFRCVYVRSAIQLGNYK
modifications: single glycosaminoglycan chain of a chondroitin sulfate/dermatan sulfate type on serine-4
- inhibition of 125I-TGF-β binding to HepG2 cells (TGF-β [3]): inhibited
- inhibition of 125I-TGF-β binding to L-M(tk-) cells (TGF-β [4]): inhibited

B3: Decorin: recombinant decorin proteoglycan purified from transfected CHO cell media (protein)
chain: B2 chain
modifications: single glycosaminoglycan chain of a chondroitin sulfate/dermatan sulfate type on serine-4
notes: recombinant decorin proteoglycan purified from transfected CHO cell media
- effect on TGFβ-1-induced growth inhibition (TGFβ-1 [5]): revealed an effect by decorin on the activity of TGFβ-1
- inhibition of [125I]-TGFβ-1 binding to decorin-coated wells (TGFβ-1 [6]): inhibited
- half maximal activity, neutralization of growth stimulatory activity of TGFβ-1 (TGFβ-1 [7]; TGFβ-1 5 ng/ml): about 5 μg/ml
- [3H]-thymidine incorporation with additional decorin (TGFβ-1 [7]; higher decorin concentrations): suppressed the [^3 H]-thymidine incorporation below the level observed without any added TGFβ-1

Second part, the molecule after the results:

- 3H-thymidine incorporation in CHO cells stimulated with 5 ng/ml TGFβ-1, half maximal neutralization (TGFβ-1 [1]): 5 µg/mL
Molecule: recombinant human decorin (from UniProt P07585)

- binding result (TGFβ-1 [2]): binds
B1: peptide 16G (peptide)
peptide: HLRVVQCSDLGL

From patent publication US5705609A, “Decorin fragments inhibiting cell regulatory factors” (La Jolla Cancer Research Foundation, priority 1995, dated 1998)
